Test results from the Human Domainome abundance scans (Beltran et al. 2025).

B1: POU domain, class 3, transcription factor 4, residues 280 to 335; numbered along this chain, P49335 (parent)
chain: KKRTSIEVSVKGVLETHFLKCPKPAAQEISSLADSLQLEKEVVRVWFCNRRQKEKR

Variants of: B1
Assay: abundance fitness (aPCA) (normalised: wild type 0, dead -1); higher = more abundant; growth selection in yeast, the domain comes from the species named
Settings: Homo sapiens

Abundance fitness of substitutions, site by site:
C21: Q 0.265, E -0.546, I -0.58, N 0.31, V -0.781, G -0.724, P -0.483, K -0.725, D 0.059, L -0.419, R -0.742, T -0.336, W -0.846, A -0.756, M -0.723, H -0.533, Y -0.898, S -0.072
E15: Q -0.789, N -0.885, I -0.368, L -0.645, P -0.659, T -0.82, S -0.845, D -0.998, V -0.756, H -0.873, K -0.728, A -0.539, R -0.985, C -0.947, G -0.881, F -0.681, Y -1.23, W -1.04
T16: I -0.428, C -0.283, L -0.304, S 0.217, R 0.059, G 0.041, Y -0.306, V -0.504, Q 0.044, K 0.572, P -0.839, A 0.197, D 0.157, W -0.347, N -0.223, M -0.214, E 0.368
S9: V -0.173, N 0.52, P -0.335, L -0.24, T 0.008, M -0.392, K 0.237
L32: E -0.631, C -0.633, A -0.247
V10: C -0.486, G -0.751, Y -0.503, Q -0.193, T -0.21, S -0.587, K -0.12, E 0.262, R -0.731, H -0.133, L -0.472, A 0.393, I 0.08, N -0.279, M 0.058
L19: W -0.624, I -0.441, Y -0.518, T -0.019, D -0.363, C -0.385, P -0.774, V -0.437, M 0.039, N -0.343, G -0.504, E -0.391, S -0.191, A -0.187, F -0.941, R -0.236, K -0.461, Q -0.045
F18: M -0.893, I -0.851, P -0.992, V -0.56, G -0.741, W -0.485, H -0.251, L -1.03, T -0.732, C -0.745, E -0.851, Q -1.16, A -0.891, K -0.461, D -0.814, S -0.719, N -0.859, R -0.812, Y -0.195
I29: S -0.762
K20: A -0.339, F -0.344, Q -0.578, Y -0.788, S -0.479, N -0.475, L -0.446, H -0.693, V -0.429, R -0.386, I -0.574, T -0.129, P -0.805, W -0.832, G -0.69, C -0.735, M -0.812
S30: M -0.262, F -0.332, I -0.148, R -0.185, Q -0.163, C -0.396, G -0.209, E 0.215, N -0.196, L -0.536, V -0.058, K -0.003, P -0.652, H -0.706, T -0.118, D 0.08
S31: T 0.035, L -0.114, M 0.096, K 0.022, V 0.013, G -0.398, N 0.182, P -0.913, I 0.004, E -0.058, H 0.219, C -0.414, R 0.29, A 0.006, F -0.059, Q -0.031, W -0.467
V13: A -0.082, T -0.502, S -0.038, R -0.215, W -0.745, I -0.235, H -0.407, L -0.02, F -0.315, Q 0.205, C -0.454, D -0.518, M 0.18, Y -0.354, E -0.182, G -0.662
P24: R -0.405, Y -1.07, W -0.514, L -0.753, H -0.688, G -0.842
L14: Q -0.953, T -0.537, R -0.792, M -0.623, F -0.887, I -0.607, V -0.788, G -0.891, A -0.955, Y -1.08, D -0.825, K -0.655, S -0.693, N -0.564, H -0.983, C -0.563
G12: R -0.219, S 0.298, D 0.288, A -0.177, L 0.004, Q 0.103, V -0.034, K -0.009
A26: V -0.254, W -0.05, K -0.415, G -0.37, N -0.043, H -0.237, M 0.108, D 0.396, E 0.385, Y -0.254, I -0.168, P 0.149, L -0.07, S -0.095, T -0.017, C -0.211, F -0.451
E28: W -0.484, I -0.47, P -0.352, T -0.411, S -0.692, D -0.3, C -0.569, F -0.732, L -0.357, V -0.398, G -0.886, A -0.657, M -0.355, K -0.713, H -0.63, N -0.123, Q -0.432, Y -0.382
A25: G 0.313, C 0.18, D 0.545, P -0.31, V -0.476, R -0.088, M -0.073, W -0.764, Q 0.045, K -0.015, S 0.457, H -0.096, F -0.769, I -0.297, L -0.262, T 0.495
H17: C -0.497, T -0.464, D -1, L -0.401, S -0.262, I -0.542, G -0.662, M -0.019, E -0.172, N -0.458, V -0.017, W -0.159, P -0.957, R -0.845, Y 0.386, A 0.085
K23: Q 0.064, I -0.369, Y 0.396, R 0.118, M 0.149, W 0.037, S 0.17, F 0.137, V -0.225, E 0.142, G -0.664, N 0.559, T 0.237, H 0.186, D 0.263, P -0.697, C 0.218
K11: S -0.498, Q 0.14, D 0.119, M 0.17, A 0.778, R -0.076, G -0.645, V -0.117, H -0.207
Q27: R -0.054, D 0.147, G -0.172, T -0.335, K -0.157, P -0.761, H -0.074, A 0.078, W -0.295, C -0.16, M -0.344, V -0.434
P22: Q 0.208, W -0.166, T -0.796, K -0.315, Y -0.949, F -0.732, G -0.909, R -0.37, M -0.553, L -0.783, H -0.513, V -0.469, I -0.606, S -0.427, C -0.502, D -0.363, E -0.702
